In patent publication US20200031952A1 (CLOSED JOINT STOCK COMPANY BIOCAD, published 2020):

Legend:
[1] = molecular target: T1, human IL-17A (human, UniProt Q16552 24-155, limits assumed); assay: cell-based or functional assay
T1 construct: Used as analyte in the Octet tests, as immobilised antigen in ELISA and as cytokine in the HT1080 cell test; also called human recombinant IL-17A; Interleukin 17

[2] = molecular target: T2, monkey IL-17A (monkey); assay: BLI (OctetRed 96), BCD109 on AR2G sensors, 1:1 model; analyte 68,7 nM (heading: 'Macaque ... IL17 Fc'); Full R^2 0,672159
T2 chain: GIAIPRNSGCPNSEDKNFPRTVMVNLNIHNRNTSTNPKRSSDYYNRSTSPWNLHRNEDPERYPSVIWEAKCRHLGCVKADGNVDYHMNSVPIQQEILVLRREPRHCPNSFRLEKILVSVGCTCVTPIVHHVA
Procedure: (§1) The test was conducted at a temperature of 30° C. and using PBS with 0.1% Tween-20 and 0.1% BSA as a working buffer.
(§2) Binding curves (after subtracting a reference signal) were analyzed using Octet Data Analysis software (Version 7.0) in accordance with the standard procedure and using 1:1 interaction model.

[3] = molecular target: T1, human IL-17A; assay: BLI (OctetRed 96), BCD109 on AR2G sensors, 1:1 model; analyte 17,1 nM (heading: 'Human ... IL17 Fc'); Full R^2 0,775434
Procedure: as §1, §2

[4] = molecular target: T1, human IL-17A; assay: BLI (OctetRed 96), BCD109 on AR2G sensors, 1:1 model; analyte 68,6 nM (heading: 'Human ... IL17 Fc'); Full R^2 0,383582
Procedure: as §1, §2

[5] = molecular target: T3, rat IL-17A (rat, UniProt Q61453 18-150, limits assumed); assay: BLI (OctetRed 96), BCD109 immobilised on AR2G sensors, IL-17A as analyte
T3 sequence (looked up): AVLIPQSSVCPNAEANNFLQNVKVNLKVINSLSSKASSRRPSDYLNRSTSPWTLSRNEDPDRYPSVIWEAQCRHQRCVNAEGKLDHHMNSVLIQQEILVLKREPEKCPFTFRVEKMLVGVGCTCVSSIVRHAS
Procedure: as §1, §2

[6] = molecular target: T1, human IL-17A; assay: BLI (OctetRed 96), BCD109 on AR2G sensors, 1:1 model; analyte 34,3 nM (heading: 'Human ... IL17 Fc'); Full R^2 0,744563
Procedure: as §1, §2

[7] = molecular target: T2, monkey IL-17A; assay: BLI (OctetRed 96), BCD109 on AR2G sensors, 1:1 model; analyte 34,4 nM (heading: 'Macaque ... IL17 Fc'); Full R^2 0,061979
Procedure: as §1, §2

[8] = molecular target: T2, monkey IL-17A; assay: BLI (OctetRed 96), BCD109 on AR2G sensors, 1:1 model; analyte 17,2 nM (heading: 'Macaque ... IL17 Fc'); Full R^2 0,753773
Procedure: as §1, §2

Molecule: AIN457 (anti-IL-17A antibody by Novartis)
- IC50, picomole as defined by the cell IL6 test [1]: 1100 picomole

B1: BCD109 (antibody, V domains shown)
VH: QVQLVQSGGGLVQAGGSLRLSCAASGGTFATSPMGWLRQAPGKGTEFVAAISPSGGDRIYADSVKGRFTISRDNAGYFIYLQMNSLKPEDTAVYYCAVRRRFDGTSYYTGDYDSWGQGTLVTVSS
VL: EIVLTQSPGTLSLSPGERATLSCRASQSVSSSYLAWYQQKPGQAPRLLIYDASSRATGIPDRFSGSGSGTDFTLTISRLEPEDFAVYYCQQYSYSPVTFGQGTKVEIKR
notes: IgG1, transiently expressed; also called BCD109 antibody; BCD109 candidate; copies: 2 + 2
- Kd [2]: < 1 pM
- Kd [3]: 4.4 pM
- Kd [4]: < 1 pM
- binding result [5]: no binding (tested: 126 nM to 2 nM titrated)
- Kd [6]: < 1 pM
- Kd [7]: < 1 pM
- Kd [8]: < 1 pM
